In assay [1] the target is BRD4 first bromodomain (BD1), N44-E168 (human) (UniProt O60885). Kind of assay: ITC; peptide in the syringe titrated into protein in the cell; 15 °C; 50 mM HEPES pH 7.5, 150 mM NaCl; single binding site model. On the technique in general: Isothermal titration calorimetry measures the heat released or taken up as one component is titrated into another.
Assay [2] deals with BRD4 second bromodomain (BD2), D334-E460 (human) (UniProt O60885). The description is as above.
The target in assay [3] is BRD4 first bromodomain (BRD4/BD1) (human) (UniProt O60885). Briefly: ITC; peptide titrated into BRD4/BD1 or BRD4/BD2 in the cell; 50 mM HEPES pH 7.5 (at 25°C), 150 mM NaCl, 15°C, stirring at 1,000 rpm; single-site binding model.
Assay [4] addresses BRD4 second bromodomain (BRD4/BD2) (human) (UniProt O60885). The description is as above.
Assay [5] concerns the target BRD4 first bromodomain (BRD4/BD1), hexa-His tag cleaved (human) (UniProt O60885). Kind of assay: ITC; peptide (1226 - 1433 μM) in the syringe, protein (36 - 59 μM) in the cell, 15°C, 50 mM HEPES pH 7.5, 150 mM NaCl, single binding site model.
The target in assay [6] is BRD4 first bromodomain (BD1), N44-E168 (human) (UniProt O60885). Kind of assay: ITC; peptide titrated into protein; 100 mM Na3PO4 pH 8.0, 150 mM NaCl; single binding site model.
In assay [7] the target is BRD4 second bromodomain (BD2), D334-E460 (human) (UniProt O60885). The assay is described as above.
In assay [8] the target is BRD4 first bromodomain (BD1), N44-E168 (human) (UniProt O60885). Briefly: ITC; salt series: 15 °C, 300 mM NaCl; the sheet's heads give [Protein] 1055 uM and [Peptide] 45 uM.
Assay [9] has the same target. Briefly: ITC; salt series: 15 °C, 450 mM NaCl; the sheet's heads give [Protein] 1085 uM and [Peptide] 45 uM.
Assay [10] shares this target. Briefly: ITC; salt series: 15 °C, 1000 mM NaCl; the sheet's heads give [Protein] 1042 uM and [Peptide] 42 uM.
The target is the same in assay [11]. Briefly: ITC; temperature series: 5 °C, 150 mM NaCl; the sheet's heads give [Protein] about […] and [Peptide] about 45 uM.
For assay [12] the target is unchanged. Kind of assay: ITC; temperature series: 20 °C, 150 mM NaCl; [Protein] about 1050-1063 uM and [Peptide] 42-46 uM.
Assay [13] has the same target. Kind of assay: ITC; temperature series: 25 °C, 150 mM NaCl; [Protein] about 1050-1063 uM and [Peptide] 42-46 uM.
Assay [14] has the same target. Briefly: ITC; temperature series: 30 °C, 150 mM NaCl; [Protein] about 1050-1063 uM and [Peptide] 42-46 uM.
The target is the same in assay [15]. Kind of assay: ITC; temperature and salt series: 15 °C, 150 mM NaCl; the sheet's heads give [Protein] about 1060 uM and [Peptide] 42-51 uM.
In assay [16] the target is BRD4 second bromodomain (BRD4/BD2) (human) (UniProt O60885). Kind of assay: ITC; peptide titrated into BRD4/BD1 or BRD4/BD2 in the cell; 100 mM Na3PO4 pH 8.0, 150 mM NaCl, 15°C, stirring at 1,000 rpm; single-site binding model.
Another assay addresses BRD4 BD1, 44-168 (UniProt O60885). Kind of assay: isothermal titration calorimetry. As to conditions: reference: H3 K9ac/K14ac peptide.
For another assay, the target named is BRD4 BD2, 334-460 (UniProt O60885). Kind of assay: isothermal titration calorimetry. As to conditions: reference: H3 K9ac/K14ac peptide.

By Kd is commonly meant the concentration at which binding is half-saturated. For orientation: stoichiometry N means a count of units in the complex or per binding partner.

On to ATRX K1030ac/K1033ac peptide, for which the equilibrium dissociation constant (Kd) in assay [1] worked out at 87.7 µM; in assay [2], 25.3 µM; in assay [3], 87.7 µM; in assay [4], 25.3 µM. The stoichiometry N turned out to be 0.99 in [1] and 0.49 in [2].
E2F1 K117ac/K120ac peptide: the Kd in assay [1] was 45.8 µM; in assay [2], 34.8 µM; in [3], 45.8 µM; in assay [4], 34.8 µM. In addition, the stoichiometry N in [1] worked out at 0.9; in [2], 0.56.
In the case of GATA1 K312ac/K315ac peptide, the Kd was determined as 24.6 µM in [1], 62.9 µM in assay [2], 24.6 µM in assay [3] and 62.9 µM in assay [4]. Moreover, the stoichiometry N in assay [1] was determined as 0.94; in [2], 0.96.
In [1], SIRT7 K272ac/K275ac peptide came in with a Kd of 15.8 µM and a stoichiometry N of 0.52. Also, in assay [2], the Kd was 44.4 µM and the stoichiometry N was found to be 0.87.
In the case of SRPK1 (K585acY) peptide used for ITC, the dissociation constant Kd in assay [5] stood at 9.9 µM.
With SRPK1 K585ac/K588ac peptide, the stoichiometry N was found to be 0.92 in assay [6]; 1.11 in assay [7]; 1.02 in [8]; 1.01 in [9]; 0.96 in [10]; 1.01 in [11]. For the same substance, the stoichiometry N in [12] is 1.14; in assay [13] it was 1.12; in [14], 1.12; in [15], 1.16. Besides, the equilibrium dissociation constant (Kd) in assay [7] was determined as 29.7 µM; in assay [8], 48.5 µM; in [9], 58.5 µM; in assay [10] it was 71.4 µM; in assay [11] it was 49 µM; in assay [12], 48.8 µM. The Kd in assay [13] came out at 40.2 µM; in [14] it was 46.3 µM; in [15], 45.7 µM; in assay [16], 29.7 µM.
Turning to TOP2A K1201ac/K1204ac peptide, the Kd in assay [1] stood at 19.5 µM; in assay [2], 63.3 µM; in assay [3] it was 19.5 µM; in [4], 63.3 µM. Also, the stoichiometry N in assay [1] worked out at 0.85; in assay [2], 0.51.
With “histone H3 (from UniProt P68431) H3 K9ac/pS10/K14ac peptide”, the “binding against the reference” value was “same” with BRD4 BD1, 44-168 (sites S10) and “lost” with BRD4 BD2, 334-460 (sites S10).
As to “histone H3 (from UniProt P68431) H3 K9ac/pT11/K14ac peptide”, the “binding against the reference” value with BRD4 BD1, 44-168 (sites T11) is recorded as “lost”; with BRD4 BD2, 334-460 (sites T11), “lost”.
